These results are taken from paper PMC9463131, “SLITRK1-mediated noradrenergic projection suppression in the neonatal prefrontal cortex” (Communications Biology, 2022).

Common to all, as to assay: BLI
For orientation: In BLI a coated tip is dipped into the sample, and binding shifts an interference pattern.

Experiment [1] addresses T1, human Neurofascin ECD-His6 (8208-NF-050, R&D Systems) (human).
T1 chain: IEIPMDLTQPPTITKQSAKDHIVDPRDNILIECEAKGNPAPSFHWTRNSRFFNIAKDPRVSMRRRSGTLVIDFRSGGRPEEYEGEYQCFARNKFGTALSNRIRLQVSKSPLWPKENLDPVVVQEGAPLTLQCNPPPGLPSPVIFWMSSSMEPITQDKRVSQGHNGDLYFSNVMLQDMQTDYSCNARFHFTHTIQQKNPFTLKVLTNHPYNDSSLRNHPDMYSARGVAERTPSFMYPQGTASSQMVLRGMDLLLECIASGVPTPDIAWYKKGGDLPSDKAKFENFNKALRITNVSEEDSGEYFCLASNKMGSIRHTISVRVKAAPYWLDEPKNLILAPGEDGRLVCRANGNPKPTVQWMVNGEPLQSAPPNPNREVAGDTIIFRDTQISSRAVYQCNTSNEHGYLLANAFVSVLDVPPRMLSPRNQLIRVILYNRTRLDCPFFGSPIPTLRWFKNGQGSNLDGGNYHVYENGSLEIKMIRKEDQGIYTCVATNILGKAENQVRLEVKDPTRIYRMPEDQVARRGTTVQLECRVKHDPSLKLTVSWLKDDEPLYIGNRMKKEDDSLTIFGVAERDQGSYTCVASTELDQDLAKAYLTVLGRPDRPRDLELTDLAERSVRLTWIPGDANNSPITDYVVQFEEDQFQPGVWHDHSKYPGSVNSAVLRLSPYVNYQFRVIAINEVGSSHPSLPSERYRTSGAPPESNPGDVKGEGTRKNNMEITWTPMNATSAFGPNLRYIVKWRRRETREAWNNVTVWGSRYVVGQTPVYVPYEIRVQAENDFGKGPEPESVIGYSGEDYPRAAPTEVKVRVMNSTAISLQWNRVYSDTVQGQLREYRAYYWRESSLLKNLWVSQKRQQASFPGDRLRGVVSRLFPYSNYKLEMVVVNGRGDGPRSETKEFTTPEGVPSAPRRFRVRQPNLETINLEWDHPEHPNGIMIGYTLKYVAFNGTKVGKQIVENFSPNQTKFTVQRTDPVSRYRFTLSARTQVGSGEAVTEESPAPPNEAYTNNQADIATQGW

Experiment [2] addresses T2, human PTPRD ECD-His6 (ACROBiosystems) (human, UniProt P23468 21-1265).
T2 chain: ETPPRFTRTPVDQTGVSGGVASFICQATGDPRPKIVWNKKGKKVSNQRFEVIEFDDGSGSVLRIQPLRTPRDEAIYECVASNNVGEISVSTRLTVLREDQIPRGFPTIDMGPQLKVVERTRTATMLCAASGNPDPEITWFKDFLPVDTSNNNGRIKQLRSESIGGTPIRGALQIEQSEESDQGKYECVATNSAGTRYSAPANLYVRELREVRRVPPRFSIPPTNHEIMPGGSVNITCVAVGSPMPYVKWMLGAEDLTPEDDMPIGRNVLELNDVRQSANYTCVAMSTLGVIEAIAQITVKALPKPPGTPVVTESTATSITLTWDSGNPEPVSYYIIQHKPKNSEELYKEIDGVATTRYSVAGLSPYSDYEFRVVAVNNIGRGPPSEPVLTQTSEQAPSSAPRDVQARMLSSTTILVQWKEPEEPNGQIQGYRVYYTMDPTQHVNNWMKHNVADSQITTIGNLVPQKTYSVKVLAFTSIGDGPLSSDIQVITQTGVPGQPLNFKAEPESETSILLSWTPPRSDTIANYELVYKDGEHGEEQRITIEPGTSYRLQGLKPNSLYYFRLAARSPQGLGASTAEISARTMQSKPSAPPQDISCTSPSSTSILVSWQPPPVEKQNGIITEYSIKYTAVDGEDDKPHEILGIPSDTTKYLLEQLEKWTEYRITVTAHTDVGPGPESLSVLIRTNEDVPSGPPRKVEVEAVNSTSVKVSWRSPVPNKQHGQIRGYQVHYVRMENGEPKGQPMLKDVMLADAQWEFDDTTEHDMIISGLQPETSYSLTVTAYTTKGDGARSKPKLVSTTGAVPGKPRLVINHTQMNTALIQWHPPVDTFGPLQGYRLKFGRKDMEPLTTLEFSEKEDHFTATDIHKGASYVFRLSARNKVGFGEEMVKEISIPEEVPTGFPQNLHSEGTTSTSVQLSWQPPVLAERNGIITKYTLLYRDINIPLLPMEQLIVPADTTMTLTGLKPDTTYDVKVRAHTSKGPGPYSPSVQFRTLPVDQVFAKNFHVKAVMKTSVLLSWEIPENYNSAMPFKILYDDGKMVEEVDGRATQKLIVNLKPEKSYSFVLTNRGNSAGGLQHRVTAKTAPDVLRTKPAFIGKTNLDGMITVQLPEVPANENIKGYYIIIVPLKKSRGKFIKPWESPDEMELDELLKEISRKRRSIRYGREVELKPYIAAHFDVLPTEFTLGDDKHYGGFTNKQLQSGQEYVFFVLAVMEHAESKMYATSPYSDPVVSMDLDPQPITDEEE

In experiment [3] the target is T3, L1CAM ECD-His6 (777-NC-100, R&D Systems) (UniProt P32004 20-1120).
T3 chain: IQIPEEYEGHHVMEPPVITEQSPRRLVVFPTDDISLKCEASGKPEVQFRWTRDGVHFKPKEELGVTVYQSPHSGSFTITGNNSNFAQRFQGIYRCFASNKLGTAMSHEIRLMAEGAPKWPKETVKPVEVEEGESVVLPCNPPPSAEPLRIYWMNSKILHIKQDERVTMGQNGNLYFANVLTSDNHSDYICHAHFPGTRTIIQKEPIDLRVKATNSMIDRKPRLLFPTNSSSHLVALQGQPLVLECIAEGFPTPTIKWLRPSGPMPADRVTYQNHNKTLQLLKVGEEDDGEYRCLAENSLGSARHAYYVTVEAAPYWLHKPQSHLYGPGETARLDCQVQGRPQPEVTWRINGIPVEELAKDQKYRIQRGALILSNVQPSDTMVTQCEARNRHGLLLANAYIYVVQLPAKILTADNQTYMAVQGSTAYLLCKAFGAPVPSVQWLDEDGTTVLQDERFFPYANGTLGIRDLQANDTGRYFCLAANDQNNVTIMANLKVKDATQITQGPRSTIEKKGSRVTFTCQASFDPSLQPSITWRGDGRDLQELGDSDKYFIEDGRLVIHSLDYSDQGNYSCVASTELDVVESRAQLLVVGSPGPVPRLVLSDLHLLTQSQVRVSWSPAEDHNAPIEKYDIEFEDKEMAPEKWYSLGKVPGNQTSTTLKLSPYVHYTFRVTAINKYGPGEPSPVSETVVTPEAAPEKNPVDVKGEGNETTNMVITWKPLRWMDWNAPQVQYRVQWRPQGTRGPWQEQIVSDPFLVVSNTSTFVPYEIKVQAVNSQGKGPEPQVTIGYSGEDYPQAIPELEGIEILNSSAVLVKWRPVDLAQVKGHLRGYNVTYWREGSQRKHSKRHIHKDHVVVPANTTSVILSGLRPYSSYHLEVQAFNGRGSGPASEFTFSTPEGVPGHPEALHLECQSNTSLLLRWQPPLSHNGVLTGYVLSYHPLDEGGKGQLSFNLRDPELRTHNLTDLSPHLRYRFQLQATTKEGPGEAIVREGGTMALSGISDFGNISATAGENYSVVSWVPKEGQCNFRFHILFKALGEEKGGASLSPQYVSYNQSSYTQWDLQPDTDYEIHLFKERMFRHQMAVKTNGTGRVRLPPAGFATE

B1: SLITRK1 ECD-immunoglobulin Fc domain-fusion protein (SLITRK1-WT-Fc) (Fc fusion)
chain: NVTGDVCKEKICSCNEIEGDLHVDCEKKGFTSLQRFTAPTSQFYHLFLHGNSLTRLFPNEFANFYNAVSLHMENNGLHEIVPGAFLGLQLVKRLHINNNKIKSFRKQTFLGLDDLEYLQADFNLLRDIDPGAFQDLNKLEVLILNDNLISTLPANVFQYVPITHLDLRGNRLKTLPYEEVLEQIPGIAEILLEDNPWDCTCDLLSLKEWLENIPKNALIGRVVCEAPTRLQGKDLNETTEQDLCPLKNRVDSSLPAPPAQEETFAPGPLPTPFKTNGQEDHATPGSAPNGGTKIPGNWQIKIRPTAAIATGSSRNKPLANSLPCPGGCSCDHIPGSGLKMNCNNRNVSSLADLKPKLSNVQELFLRDNKIHSIRKSHFVDYKNLILLDLGNNNIATVENNTFKNLLDLRWLYMDSNYLDTLSREKFAGLQNLEYLNVEYNAIQLILPGTFNAMPKLRILILNNNLLRSLPVDVFAGVSLSKLSLHNNYFMYLPVAGVLDQLTSIIQIDLHGNPWECSCTIVPFKQWAERLGSEVLMSDLKCETPVNFFRKDFMLLSNDEICPQLYARISPTLTSHSKNSTGLAETGTHSNSYLDTSRVS
For orientation: koff means the rate constant with which the complex falls apart. As for B1, the koff in experiment [1] is 0.00256 s⁻¹; in experiment [2], 0.00351 s⁻¹; in experiment [3], 0.00088 s⁻¹.
